{
  "source": "paper PMC10582360",
  "about": "“A nanoparticle platform for combined mucosal healing and immunomodulation in inflammatory bowel disease treatment” (Bioactive materials, 2023)",
  "origin": "cited, not measured here",
  "test_system": "dipeptidyl peptidase IV (DPP-IV)",
  "details": "ref [4]",
  "excerpt": "Teduglutide, a GLP-2 analog with prolonged half-life, is commercialized as a daily subcutaneous injection (Gattex®, Revestive®) for its use in short bowel syndrome (SBS) in patients who are dependent on parenteral support. A second long-acting GLP-2 analog, glepaglutide (Zealand Pharma), has just ...",
  "data": [
    {"substance": "Glucagon-like peptide 2 [GLP-2]", "values": [
      {"measurement": "cleavage by DPP-IV", "value": "rapidly cleaved"}
    ]}
  ]
}
